In general, stoichiometry N refers to a count of units in the complex or per binding partner.

Stoichiometry N data for one substance are collected here from PMC4715562.

The test deals with Gp7-MyH7-1526-1571 (bacteriophage φ29 | human). Put plainly: crystal structure.

In turn, Gp7-MyH7-1526-1571 (domain or fragment) showed a stoichiometry N of 2.
